Source: patent US20040023255

Tested on: microtubules

Substance: HsKip3d M1-S357 protein
- Km for microtubule stimulation (coupled PK/LDH microtubule-stimulated ATPase assay, Michaelis-Menten fit): a Km for microtubule stimulation of 0.2 µM
